Results reported in article PMC5906670, “Structural basis of epilepsy-related ligand–receptor complex LGI1–ADAM22” (Nature Communications, 2018).
Values belong to the binder of their own block, whether it stands above or below them.

How the values were obtained:
[1] = target: T1, ADAM22 ECD (C-terminal His6 tag) (human, UniProt Q9P0K1-1 26-729, p.Pro81Arg); assay: SEC-MALS; co-purified complexes, 1 g L^−1, ENrich SEC 650 column, 20 mM Tris-HCl (pH 7.5), 150 mM NaCl (standard condition); conditions: both partners purified
T1 construct: signal peptide in the construct; ADAM22, human, cDNA as NM_021723 except the p.Pro81Arg polymorphism in the Pro domain; also called ADAM22 ectodomain; source: Expi293F, transient, co-expressed with LGI1 EPTP-His6; purified from culture medium (Ni-NTA, SEC)
T1 sequence (looked up): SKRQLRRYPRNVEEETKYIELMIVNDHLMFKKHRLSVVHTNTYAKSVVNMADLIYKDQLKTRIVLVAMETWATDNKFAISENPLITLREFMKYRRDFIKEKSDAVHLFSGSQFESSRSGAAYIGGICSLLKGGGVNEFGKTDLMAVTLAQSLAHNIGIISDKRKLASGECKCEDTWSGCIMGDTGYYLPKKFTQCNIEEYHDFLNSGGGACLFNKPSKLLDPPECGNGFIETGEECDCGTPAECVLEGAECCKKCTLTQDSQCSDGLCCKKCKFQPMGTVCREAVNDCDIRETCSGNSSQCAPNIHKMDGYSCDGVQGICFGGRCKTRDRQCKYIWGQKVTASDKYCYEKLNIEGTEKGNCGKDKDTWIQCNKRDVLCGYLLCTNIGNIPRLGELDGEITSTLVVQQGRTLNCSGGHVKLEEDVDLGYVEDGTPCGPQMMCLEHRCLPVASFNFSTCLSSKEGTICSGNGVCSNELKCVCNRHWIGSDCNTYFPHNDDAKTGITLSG

[2] = target: T2, ADAM22 ECD (non-tagged) (human, UniProt Q9P0K1-1 26-729, p.Pro81Arg); assay: SEC-MALS; co-purified complexes, 1 g L^−1, ENrich SEC 650 column, 20 mM Tris-HCl (pH 7.5), 500 mM NaCl; conditions: both partners purified
T2 construct: signal peptide in the construct; ADAM22, human, cDNA as NM_021723 except the p.Pro81Arg polymorphism in the Pro domain; source: Expi293F, transient, co-expressed with His6-tagged LGI1; purified as the complex (Ni-NTA, SEC)
T2 sequence (looked up): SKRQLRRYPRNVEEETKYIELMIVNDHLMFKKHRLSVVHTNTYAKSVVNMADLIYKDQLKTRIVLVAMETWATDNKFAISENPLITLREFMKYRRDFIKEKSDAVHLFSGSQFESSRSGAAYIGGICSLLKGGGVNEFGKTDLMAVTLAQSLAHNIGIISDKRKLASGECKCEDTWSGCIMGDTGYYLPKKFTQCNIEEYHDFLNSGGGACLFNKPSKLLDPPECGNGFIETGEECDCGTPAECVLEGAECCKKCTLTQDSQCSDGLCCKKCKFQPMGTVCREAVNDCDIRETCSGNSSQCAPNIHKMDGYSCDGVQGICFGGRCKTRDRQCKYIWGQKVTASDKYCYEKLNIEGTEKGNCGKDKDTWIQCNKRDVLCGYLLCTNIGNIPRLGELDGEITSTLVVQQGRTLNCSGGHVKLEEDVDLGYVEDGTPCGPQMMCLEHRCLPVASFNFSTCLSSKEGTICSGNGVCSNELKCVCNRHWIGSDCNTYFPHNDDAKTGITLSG

[3] = target: the molecule itself; assay: SEC-MALS; co-purified complexes, 1 g L^−1, ENrich SEC 650 column, 20 mM Tris-HCl (pH 7.5), 150 mM NaCl (standard condition)
[4] = target: the molecule itself; assay: SEC-MALS; co-purified complexes, 1 g L^−1, ENrich SEC 650 column, 20 mM Tris-HCl (pH 7.5), 500 mM NaCl
[5] = target: T2, ADAM22 ECD (non-tagged); assay: SEC-MALS; co-purified complexes, 1 g L^−1, ENrich SEC 650 column, 20 mM Tris-HCl (pH 7.5), 150 mM NaCl (standard condition); conditions: both partners purified
[6] = target: the molecule itself; assay: crystal structure; LGI1^R470A–ADAM22 ECD complex, co-expressed and co-purified; sitting drop, 20 °C, 10% PEG8000, 0.1 M zinc acetate, 0.1 M MES-NaOH (pH 6.0); 7.13 Å
[7] = target: the molecule itself; assay: SEC-SAXS; LGI1–ADAM22 complex (LGI1^R470A) at 5.7 or 8.2 g L^−1, ENrich SEC 650, 20 mM Tris-HCl (pH 7.5), 150 or 500 mM NaCl, 293 K; scattering curve compared with curves of the 2:2 crystal structure and a 3:3 model

stoichiometry N [1]: 1 LGI1 EPTP per ADAM22 ECD
B1: LGI1 EPTP (domain or fragment, human, UniProt O95970-1 224-557, looked up)
chain: TEFAKSQDLPYQSLSIDTFSYLNDEYVVIAQPFTGKCIFLEWDHVEKTFRNYDNITGTSTVVCKPIVIETQLYVIVAQLFGGSHIYKRDSFANKFIKIQDIEILKIRKPNDIETFKIENNWYFVVADSSKAGFTTIYKWNGNGFYSHQSLHAWYRDTDVEYLEIVRTPQTLRTPHLILSSSSQRPVIYQWNKATQLFTNQTDIPNMEDVYAVKHFSVKGDVYICLTRFIGDSKVMKWGGSSFQDIQRMPSRGSMVFQPLQINNYQYAILGSDYSFTQVYNWDAEKAKFVKFQELNVQAPRSFTHVSINKRNFLFASSFKGNTQIYKHVIVDLSA
notes: LGI1, human, cDNA NM_005097; EPTP domain, residues 224-557; also called C-terminal epitempin-repeat (EPTP) domain of LGI1; EAR domain; source: Expi293F, transient, co-expressed with His6-tagged ADAM22 ECD; purified from culture medium (Ni-NTA, SEC)

stoichiometry N [2]: 1 LGI1 per ADAM22 ECD (2:2)
B2: full-length LGI1 (residues 37–557), C-terminal His6 (ligand, human, UniProt O95970-1 37-557, looked up)
chain: PAKPKCPAVCTCTKDNALCENARSIPRTVPPDVISLSFVRSGFTEISEGSFLFTPSLQLLLFTSNSFDVISDDAFIGLPHLEYLFIENNNIKSISRHTFRGLKSLIHLSLANNNLQTLPKDIFKGLDSLTNVDLRGNSFNCDCKLKWLVEWLGHTNATVEDIYCEGPPEYKKRKINSLSSKDFDCIITEFAKSQDLPYQSLSIDTFSYLNDEYVVIAQPFTGKCIFLEWDHVEKTFRNYDNITGTSTVVCKPIVIETQLYVIVAQLFGGSHIYKRDSFANKFIKIQDIEILKIRKPNDIETFKIENNWYFVVADSSKAGFTTIYKWNGNGFYSHQSLHAWYRDTDVEYLEIVRTPQTLRTPHLILSSSSQRPVIYQWNKATQLFTNQTDIPNMEDVYAVKHFSVKGDVYICLTRFIGDSKVMKWGGSSFQDIQRMPSRGSMVFQPLQINNYQYAILGSDYSFTQVYNWDAEKAKFVKFQELNVQAPRSFTHVSINKRNFLFASSFKGNTQIYKHVIVDLSA
notes: LGI1, human, cDNA NM_005097; 'full length, residues 37–557' (without the signal peptide); PDB 5Y31 holds the R470A mutant of the same limits; also called LGI1^WT; source: Expi293F, transient, co-expressed with non-tagged ADAM22 ECD; purified from culture medium (Ni-NTA, SEC)
stoichiometry N [3]: 3 LGI1 chains in the assembly | stoichiometry N [4]: 2 LGI1 chains in the assembly

stoichiometry N [5]: 1 LGI1 per ADAM22 ECD
B3: LGI1^R474Q (residues 37–557), C-terminal His6 (ligand, human, UniProt O95970-1 37-557, looked up)
chain: PAKPKCPAVCTCTKDNALCENARSIPRTVPPDVISLSFVRSGFTEISEGSFLFTPSLQLLLFTSNSFDVISDDAFIGLPHLEYLFIENNNIKSISRHTFRGLKSLIHLSLANNNLQTLPKDIFKGLDSLTNVDLRGNSFNCDCKLKWLVEWLGHTNATVEDIYCEGPPEYKKRKINSLSSKDFDCIITEFAKSQDLPYQSLSIDTFSYLNDEYVVIAQPFTGKCIFLEWDHVEKTFRNYDNITGTSTVVCKPIVIETQLYVIVAQLFGGSHIYKRDSFANKFIKIQDIEILKIRKPNDIETFKIENNWYFVVADSSKAGFTTIYKWNGNGFYSHQSLHAWYRDTDVEYLEIVRTPQTLRTPHLILSSSSQRPVIYQWNKATQLFTNQTDIPNMEDVYAVKHFSVKGDVYICLTRFIGDSKVMKWGGSSFQDIQRMPSQGSMVFQPLQINNYQYAILGSDYSFTQVYNWDAEKAKFVKFQELNVQAPRSFTHVSINKRNFLFASSFKGNTQIYKHVIVDLSA
notes: LGI1, human, cDNA NM_005097, residues 37-557; R474Q is a human ADLTE mutation; source: Expi293F, transient, co-expressed with ADAM22 ECD; purified as the complex (Ni-NTA, SEC)

B4: LGI1^R470A (residues 37–557), C-terminal His6 (ligand, human, UniProt O95970-1 37-557, looked up)
chain: PAKPKCPAVCTCTKDNALCENARSIPRTVPPDVISLSFVRSGFTEISEGSFLFTPSLQLLLFTSNSFDVISDDAFIGLPHLEYLFIENNNIKSISRHTFRGLKSLIHLSLANNNLQTLPKDIFKGLDSLTNVDLRGNSFNCDCKLKWLVEWLGHTNATVEDIYCEGPPEYKKRKINSLSSKDFDCIITEFAKSQDLPYQSLSIDTFSYLNDEYVVIAQPFTGKCIFLEWDHVEKTFRNYDNITGTSTVVCKPIVIETQLYVIVAQLFGGSHIYKRDSFANKFIKIQDIEILKIRKPNDIETFKIENNWYFVVADSSKAGFTTIYKWNGNGFYSHQSLHAWYRDTDVEYLEIVRTPQTLRTPHLILSSSSQRPVIYQWNKATQLFTNQTDIPNMEDVYAVKHFSVKGDVYICLTRFIGDSKVMKWGGSSFQDIQAMPSRGSMVFQPLQINNYQYAILGSDYSFTQVYNWDAEKAKFVKFQELNVQAPRSFTHVSINKRNFLFASSFKGNTQIYKHVIVDLSA
notes: LGI1, human, cDNA NM_005097, residues 37-557; also called LGI1 (in the 'LGI1–ADAM22 complex'); source: Expi293F, transient, co-expressed with non-tagged ADAM22 ECD; purified as the complex (Ni-NTA, SEC)
stoichiometry N [6]: 2 LGI1 chains in the assembly | stoichiometry N [7]: 3 LGI1 chains in the assembly
